Target: mouse RANK (RANKL receptor on RAW264 cells) (mouse) (UniProt O35305)
Assay: cell-based or functional assay

Sequence of UniProt O35305 (O35305 31-625): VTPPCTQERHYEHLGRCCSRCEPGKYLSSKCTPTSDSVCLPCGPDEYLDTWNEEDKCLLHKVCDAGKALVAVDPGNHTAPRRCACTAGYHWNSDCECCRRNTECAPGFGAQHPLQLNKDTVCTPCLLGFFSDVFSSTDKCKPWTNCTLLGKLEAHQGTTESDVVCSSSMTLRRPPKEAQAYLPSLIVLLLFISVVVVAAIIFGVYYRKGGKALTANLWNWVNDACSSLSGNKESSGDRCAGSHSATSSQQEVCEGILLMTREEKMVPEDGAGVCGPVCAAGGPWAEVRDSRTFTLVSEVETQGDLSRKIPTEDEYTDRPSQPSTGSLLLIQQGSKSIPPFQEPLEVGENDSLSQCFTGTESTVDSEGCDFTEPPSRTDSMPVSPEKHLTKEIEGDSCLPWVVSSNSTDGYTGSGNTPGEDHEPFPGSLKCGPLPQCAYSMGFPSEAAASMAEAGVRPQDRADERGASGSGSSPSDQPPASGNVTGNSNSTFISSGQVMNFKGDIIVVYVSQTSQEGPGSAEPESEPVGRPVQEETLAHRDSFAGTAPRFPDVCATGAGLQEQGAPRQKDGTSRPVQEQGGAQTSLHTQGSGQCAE

osteoclast induction activity in RAW264 cells (at concentrations of 10 nM and 5 nM) (fold over mouse soluble RANKL): > 2
Substance: GST-RANKL (fused protein of glutathione-S-transferase with human soluble RANKL residues 140-317) (ligand)
